B4: 6FW-EmrE^W63 (EmrE W31F/W45F/W76F labeled with 6-fluoro-tryptophan at Trp63) (natural protein, E. coli)
chain: MNPYIYLGGAILAEVIGTTLMKFSEGFTRLFPSVGTIICYCASFFLLAQTLAYIPTGIAYAIWSGVGIVLISLLSFGFFGQRLDLPAIIGMMLICAGVLIINLLSRSTPH
modifications: 6-fluoro-tryptophan at Trp63
notes: EmrE, small multidrug resistance (SMR) transporter of E. coli; only Trp63 kept of the four tryptophans; also called 6FW-labeled EmrE^W63; source: E. coli BL21(DE3), M9 medium with glyphosate and fluoro-indole, purified (amylose column, TEV cleavage, SEC in DDM)

Tests used:
Experiment in all cases: 19F NMR spectroscopy (one-dimensional spectra and 19F/19F ZZ-exchange/NOESY); proteins alone or mixed in DDM (1 h, 37 °C, 10 mM DTT) at stated molar ratios, reconstituted in 14:0-PC/6:0-PC isotropic bicelles (q = 0.33); pH 5.6; 37 °C; 1-2 mM protein; 150 mM Na2HPO4, 20 mM NaCl
[1] = molecular target: T1, EmrE^(W63, L51I), natural abundance (E. coli, UniProt P23895 1-110, W31F | W45F | W76F | L51I); conditions: both partners purified
T1 construct: EmrE, small multidrug resistance (SMR) transporter of E. coli; EmrE^W63 background with L51I; also called natural abundance EmrE^(W63, L51I); source: E. coli BL21(DE3), purified (amylose column, TEV cleavage, SEC in DDM)
T1 sequence: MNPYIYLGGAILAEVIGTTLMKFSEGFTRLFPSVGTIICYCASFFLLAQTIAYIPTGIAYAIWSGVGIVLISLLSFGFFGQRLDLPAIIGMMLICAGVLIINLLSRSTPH

[2] = molecular target: T2, EmrE^(W63, E14Q), natural abundance (E. coli, UniProt P23895 1-110, W31F | W45F | W76F | E14Q); conditions: both partners purified
T2 construct: EmrE, small multidrug resistance (SMR) transporter of E. coli; EmrE^W63 background with E14Q; also called natural abundance EmrE^(W63, E14Q); source: E. coli BL21(DE3), purified (amylose column, TEV cleavage, SEC in DDM)
T2 sequence: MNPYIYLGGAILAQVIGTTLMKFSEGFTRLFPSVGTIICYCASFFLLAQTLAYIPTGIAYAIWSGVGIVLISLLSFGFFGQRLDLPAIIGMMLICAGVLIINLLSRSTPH

[3] = molecular target: the molecule itself
[4] = molecular target: T3, EmrE^W63 (EmrE W31F/W45F/W76F), natural abundance (E. coli, UniProt P23895 1-110, W31F | W45F | W76F); conditions: both partners purified
T3 construct: EmrE, small multidrug resistance (SMR) transporter of E. coli; only Trp63 kept of the four tryptophans; NMR-silent partner in the mixed (heterodimer) samples; reconstituted in 14:0-PC/6:0-PC bicelles; also called unlabeled EmrE^W63; natural abundance EmrE^W63; source: E. coli BL21(DE3), LB medium, purified (amylose column, TEV cleavage, SEC in DDM)
T3 sequence: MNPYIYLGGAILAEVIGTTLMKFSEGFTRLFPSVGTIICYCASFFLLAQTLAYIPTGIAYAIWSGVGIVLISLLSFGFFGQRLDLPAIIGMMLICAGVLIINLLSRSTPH

[5] = molecular target: B4; conditions: both partners purified

B1: 5FW-EmrE^W63 (EmrE W31F/W45F/W76F labeled with 5-fluoro-tryptophan at Trp63) (natural protein, E. coli)
chain: MNPYIYLGGAILAEVIGTTLMKFSEGFTRLFPSVGTIICYCASFFLLAQTLAYIPTGIAYAIWSGVGIVLISLLSFGFFGQRLDLPAIIGMMLICAGVLIINLLSRSTPH
modifications: 5-fluoro-tryptophan at Trp63
notes: EmrE, small multidrug resistance (SMR) transporter of E. coli; only Trp63 kept of the four tryptophans; also called 5FW-labeled EmrE^W63; source: E. coli BL21(DE3), M9 medium with glyphosate and fluoro-indole, purified (amylose column, TEV cleavage, SEC in DDM)
binding result [1]: binds | binding result [2]: binds | binding result [3]: binds | binding result [4]: binds

B2: 5FW-EmrE^(W63, E14Q) (natural protein, E. coli)
chain: MNPYIYLGGAILAQVIGTTLMKFSEGFTRLFPSVGTIICYCASFFLLAQTLAYIPTGIAYAIWSGVGIVLISLLSFGFFGQRLDLPAIIGMMLICAGVLIINLLSRSTPH
modifications: 5-fluoro-tryptophan at Trp63
notes: EmrE, small multidrug resistance (SMR) transporter of E. coli; EmrE^W63 background with E14Q; also called Gln14 mutant monomer; source: E. coli BL21(DE3), M9 medium with glyphosate and fluoro-indole, purified (amylose column, TEV cleavage, SEC in DDM)
binding result [3]: binds | binding result [4]: binds

B3: 5FW-EmrE^(W63, L51I) (natural protein, E. coli)
chain: MNPYIYLGGAILAEVIGTTLMKFSEGFTRLFPSVGTIICYCASFFLLAQTIAYIPTGIAYAIWSGVGIVLISLLSFGFFGQRLDLPAIIGMMLICAGVLIINLLSRSTPH
modifications: 5-fluoro-tryptophan at Trp63
notes: EmrE, small multidrug resistance (SMR) transporter of E. coli; EmrE^W63 background with L51I; source: E. coli BL21(DE3), M9 medium with glyphosate and fluoro-indole, purified (amylose column, TEV cleavage, SEC in DDM)
binding result [3]: binds | binding result [5]: binds | binding result [4]: binds

B4
binding result [3]: binds | binding result [4]: binds

Source: publication PMC12464994, “Quantification of Membrane Protein Conformational Free Energy from Mutations and a Single Atom” (Journal of the American Chemical Society, 2025)
